Measured values: article PMC4682845 (2015)

Target: […]-para-nitroanilide (TQ6-pNA) peptide substrate
Test: ITC

B1: MERS-CoV main protease (M^pro), wild type, authentic N-terminus (enzyme)
chain: SGLVKMSHPSGDVEACMVQVTCGSMTLNGLWLDNTVWCPRHVMCPADQLSDPNYDALLISMTNHSFSVQKHIGAPANLRVVGHAMQGTLLKLTVDVANPSTPAYTFTTVKPGAAFSVLACYNGRPTGTFTVVMRPNYTIKGSFLCGSCGSVGYTKEGSVINFCYMHQMELANGTHTGSAFDGTMYGAFMDKQVHQVQLTDKYCSVNVVAWLYAAILNGCAWFVKPNRTSVVSFNEWALANQFTEFVGTQSVDMLAVKTGVAIEQLLYAIQQLYTGFQGKQILGSTMLEDEFTPEDVNMQIMGVVMQ
  Kd: 20.3 µM
